± gives the uncertainty stated by the source.
B1: SWI/SNF complex subunit SMARCC2, residues 599 to 641; numbered along this chain, Q8TAQ2 (parent)
chain: REWTEQETLLLLEALEMYKDDWNKVSEHVGSRTQDECILHFLR

Variants of: B1
Assay: abundance fitness (aPCA) (normalised: wild type 0, dead -1); higher = more abundant; growth selection in yeast, the domain comes from the species named
Settings: Homo sapiens

REWTEQETLLLLEALEMYKDDWNRVSEHVGSRTQDECILHFLR [K24R] and REWTEQETLLLLEALEMYKDDWNLVSEHVGSRTQDECILHFLR [K24L] are within error of each other in abundance fitness: 0.064 ± 0.066 for the first, 0.054 ± 0.065 for the second.

REWTEQETLLLLEALEMYKDDWNQVSEHVGSRTQDECILHFLR [K24Q] and REWTEQETLLLLEALEMYKDDWNHVSEHVGSRTQDECILHFLR [K24H] are within error of each other in abundance fitness: 0.046 ± 0.086 for the first, -0.139 ± 0.12 for the second.

First: REWTEQETLLLLEALEMYKDDWNDVSEHVGSRTQDECILHFLR [K24D]
Second: REWTEQETLLLLEALEMYKDDWNAVSEHVGSRTQDECILHFLR [K24A]
The abundance fitness of the first is lower: -0.366 ± 0.12 for the first, 0.124 ± 0.066 for the second.

Compared with REWTEQETLLLLEALEMYKDDWNVVSEHVGSRTQDECILHFLR [K24V], REWTEQETLLLLEALEMYKDDWNMVSEHVGSRTQDECILHFLR [K24M] is higher in abundance fitness: -0.389 ± 0.08 for the first, 0.259 ± 0.1 for the second.

REWTEQETLLLLEALEMYKDDWNFVSEHVGSRTQDECILHFLR [K24F] and REWTEQETLLLLEALEMYKDDWNTVSEHVGSRTQDECILHFLR [K24T] are within error of each other in abundance fitness: 0.058 ± 0.13 for the first, -0.005 ± 0.065 for the second.

Going from REWTEQETLLLLEALEMYKDDWNNVSEHVGSRTQDECILHFLR [K24N] to REWTEQETLLLLEALEMYKDDWNCVSEHVGSRTQDECILHFLR [K24C], the abundance fitness rises from -0.501 ± 0.21 to -0.148 ± 0.094.

Compared with REWTEQETLLLLEALEMYKDDWNPVSEHVGSRTQDECILHFLR [K24P], REWTEQETLLLLEALEMYKDDWNEVSEHVGSRTQDECILHFLR [K24E] is higher in abundance fitness: -0.524 ± 0.092 for the first, 0.154 ± 0.098 for the second.

Going from REWTEQETLLLLEALEMYKDDWNSVSEHVGSRTQDECILHFLR [K24S] to REWTEQETLLLLEALEMYKDDNNKVSEHVGSRTQDECILHFLR [W22N], the abundance fitness falls from -0.081 ± 0.063 to -0.759 ± 0.15.

First: REWTEQETLLLLEALEMYKDDSNKVSEHVGSRTQDECILHFLR [W22S]
Second: REWTEQETLLLLEALEMYKDDKNKVSEHVGSRTQDECILHFLR [W22K]
The abundance fitness of the first is lower: -0.91 ± 0.17 for the first, -0.367 ± 0.15 for the second.

Compared with REWTEQETLLLLEALEMYKDDFNKVSEHVGSRTQDECILHFLR [W22F], REWTEQETLLLLEALEMYKDDANKVSEHVGSRTQDECILHFLR [W22A] is lower in abundance fitness: -0.389 ± 0.12 for the first, -0.791 ± 0.11 for the second.

REWTEQETLLLLEALEMYKDDCNKVSEHVGSRTQDECILHFLR [W22C] and REWTEQETLLLLEALEMYKDDINKVSEHVGSRTQDECILHFLR [W22I] are within error of each other in abundance fitness: -0.792 ± 0.13 for the first, -0.535 ± 0.45 for the second.

First: REWTEQETLLLLEALEMYKDDQNKVSEHVGSRTQDECILHFLR [W22Q]
Second: REWTEQETLLLLEALEMYKDDYNKVSEHVGSRTQDECILHFLR [W22Y]
The abundance fitness of the first is lower: -0.887 ± 0.24 for the first, -0.115 ± 0.32 for the second.

REWTEQETLLLLEALEMYKDDMNKVSEHVGSRTQDECILHFLR [W22M] and REWTEQETLLLLEALEMYKDDHNKVSEHVGSRTQDECILHFLR [W22H] are within error of each other in abundance fitness: -0.412 ± 0.11 for the first, -0.231 ± 0.18 for the second.

REWTEQETLLLLEALEMYKDDVNKVSEHVGSRTQDECILHFLR [W22V] and REWTEQETLLLLEALEMYKDDDNKVSEHVGSRTQDECILHFLR [W22D] are within error of each other in abundance fitness: -0.529 ± 0.086 for the first, -0.339 ± 0.18 for the second.

REWTEQETLLLLEALEMYKDDGNKVSEHVGSRTQDECILHFLR [W22G] and REWTEQETLLLLEALEMYKDDRNKVSEHVGSRTQDECILHFLR [W22R] are within error of each other in abundance fitness: -0.615 ± 0.1 for the first, -0.833 ± 0.12 for the second.

First: REWTEQETLLLLEALEMYKDDTNKVSEHVGSRTQDECILHFLR [W22T]
Second: REWTEQETLLLLEALEMYKDPWNKVSEHVGSRTQDECILHFLR [D21P]
The abundance fitness of the first is higher: -0.433 ± 0.11 for the first, -0.919 ± 0.16 for the second.

REWTEQETLLLLEALEMYKDQWNKVSEHVGSRTQDECILHFLR [D21Q] and REWTEQETLLLLEALEMYKDNWNKVSEHVGSRTQDECILHFLR [D21N] are within error of each other in abundance fitness: -0.122 ± 0.086 for the first, -0.314 ± 0.43 for the second.

Going from REWTEQETLLLLEALEMYKDVWNKVSEHVGSRTQDECILHFLR [D21V] to REWTEQETLLLLEALEMYKDSWNKVSEHVGSRTQDECILHFLR [D21S], the abundance fitness rises from -0.496 ± 0.09 to -0.057 ± 0.064.

REWTEQETLLLLEALEMYKDTWNKVSEHVGSRTQDECILHFLR [D21T] and REWTEQETLLLLEALEMYKDYWNKVSEHVGSRTQDECILHFLR [D21Y] are within error of each other in abundance fitness: -0.336 ± 0.15 for the first, -0.541 ± 0.33 for the second.

REWTEQETLLLLEALEMYKDRWNKVSEHVGSRTQDECILHFLR [D21R] and REWTEQETLLLLEALEMYKDWWNKVSEHVGSRTQDECILHFLR [D21W] are within error of each other in abundance fitness: -0.192 ± 0.077 for the first, -0.493 ± 0.27 for the second.

REWTEQETLLLLEALEMYKDDWPKVSEHVGSRTQDECILHFLR [N23P] and REWTEQETLLLLEALEMYKDDWFKVSEHVGSRTQDECILHFLR [N23F] are within error of each other in abundance fitness: 0.17 ± 0.059 for the first, 0.046 ± 0.084 for the second.

REWTEQETLLLLEALEMYKDDWAKVSEHVGSRTQDECILHFLR [N23A] and REWTEQETLLLLEALEMYKDDWDKVSEHVGSRTQDECILHFLR [N23D] are within error of each other in abundance fitness: 0.204 ± 0.064 for the first, 0.109 ± 0.11 for the second.

REWTEQETLLLLEALEMYKDDWQKVSEHVGSRTQDECILHFLR [N23Q] and REWTEQETLLLLEALEMYKDDWWKVSEHVGSRTQDECILHFLR [N23W] are within error of each other in abundance fitness: -0.081 ± 0.097 for the first, -0.131 ± 0.12 for the second.

REWTEQETLLLLEALEMYKDDWTKVSEHVGSRTQDECILHFLR [N23T] and REWTEQETLLLLEALEMYKDDWCKVSEHVGSRTQDECILHFLR [N23C] are within error of each other in abundance fitness: 0.033 ± 0.069 for the first, 0.123 ± 0.068 for the second.

REWTEQETLLLLEALEMYKDDWVKVSEHVGSRTQDECILHFLR [N23V] and REWTEQETLLLLEALEMYKDDWLKVSEHVGSRTQDECILHFLR [N23L] are within error of each other in abundance fitness: 0.059 ± 0.067 for the first, 0.026 ± 0.067 for the second.

First: REWTEQETLLLLEALEMYKDDWGKVSEHVGSRTQDECILHFLR [N23G]
Second: REWTEQETLLLLEALEMYKDDWYKVSEHVGSRTQDECILHFLR [N23Y]
The abundance fitness of the first is higher: 0.112 ± 0.059 for the first, -0.285 ± 0.086 for the second.

REWTEQETLLLLEALEMYKDDWRKVSEHVGSRTQDECILHFLR [N23R] and REWTEQETLLLLEALEMYKDDWEKVSEHVGSRTQDECILHFLR [N23E] are within error of each other in abundance fitness: 0.069 ± 0.056 for the first, 0.091 ± 0.17 for the second.

REWTEQETLLLLEALEMYKDDWKKVSEHVGSRTQDECILHFLR [N23K] and REWTEQETLLLLEALEMYKDDWMKVSEHVGSRTQDECILHFLR [N23M] are within error of each other in abundance fitness: 0.037 ± 0.072 for the first, 0.025 ± 0.13 for the second.

REWTEQETLLLLEALEMYKDDWIKVSEHVGSRTQDECILHFLR [N23I] and REWTEQETLLLLEALEMYKDDWSKVSEHVGSRTQDECILHFLR [N23S] are within error of each other in abundance fitness: -0.121 ± 0.14 for the first, 0.064 ± 0.065 for the second.

REWTEQETLLLLEALEMYKDDWHKVSEHVGSRTQDECILHFLR [N23H] showed an abundance fitness of -0.009 ± 0.077.

From the Human Domainome abundance scans (Beltran et al. 2025)
